In patent US20240181006A1, “POLYPEPTIDES BINDING ADAMTS5, MMP13 AND AGGRECAN” (Merck Patent GmbH, priority 2017, published 2024):

Key:
Type in all cases: binding
[1] = target: T1, human ADAMTS5 (Homo sapiens, UniProt Q9UNA0); assay: SPR-based off-rate analysis, human ADAMTS5
T1 sequence (Q9UNA0 262-930): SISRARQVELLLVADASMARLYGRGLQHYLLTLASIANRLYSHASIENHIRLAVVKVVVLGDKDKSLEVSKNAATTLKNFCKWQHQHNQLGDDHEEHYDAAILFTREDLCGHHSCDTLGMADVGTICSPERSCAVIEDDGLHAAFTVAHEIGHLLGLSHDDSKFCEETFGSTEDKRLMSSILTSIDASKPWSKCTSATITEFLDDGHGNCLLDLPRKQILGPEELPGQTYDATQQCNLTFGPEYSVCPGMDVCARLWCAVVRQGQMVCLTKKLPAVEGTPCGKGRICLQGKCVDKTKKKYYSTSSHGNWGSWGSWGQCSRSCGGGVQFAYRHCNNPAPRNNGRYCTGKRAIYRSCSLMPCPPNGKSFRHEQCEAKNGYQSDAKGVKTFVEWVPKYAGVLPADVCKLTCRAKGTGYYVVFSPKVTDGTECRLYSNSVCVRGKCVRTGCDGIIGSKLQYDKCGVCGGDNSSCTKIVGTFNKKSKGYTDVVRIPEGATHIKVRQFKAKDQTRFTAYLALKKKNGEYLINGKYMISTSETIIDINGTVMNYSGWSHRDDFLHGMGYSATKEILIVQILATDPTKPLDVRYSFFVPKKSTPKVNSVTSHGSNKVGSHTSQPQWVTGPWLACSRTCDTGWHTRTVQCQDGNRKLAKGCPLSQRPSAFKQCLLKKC
Description: (§1) Species cross-reactivity was initially evaluated via SPR-based off-rate analysis on a Biacore T100 instrument. Polypeptides were tested for binding to human, cynomolgus monkey (“cyno”), guinea pig, mouse, and bovine ADAMTS5. To this end, recombinant ADAMTS5 was immobilized onto a CM5 chip via amine coupling using EDC and NHS. Purified ISVD 02F03 was injected for 2 minutes at a concentration of 100 nM and allowed to dissociate for 15 min at a flow rate of 45 μl/min. Off-rate for each individual ADAMTS5 was determined by fitting a 1:1 interaction model (Langmuir model) onto the individual dissociation curves using the BIA Evaluation software. As a reference, off-rates on human ADAMTS5 were determined in each experiment.

[2] = target: T2, mouse ADAMTS5 (Mus musculus, UniProt Q9R001); assay: SPR-based off-rate analysis, mouse ADAMTS5; settings: Experiment 2
T2 sequence (Q9R001 262-930): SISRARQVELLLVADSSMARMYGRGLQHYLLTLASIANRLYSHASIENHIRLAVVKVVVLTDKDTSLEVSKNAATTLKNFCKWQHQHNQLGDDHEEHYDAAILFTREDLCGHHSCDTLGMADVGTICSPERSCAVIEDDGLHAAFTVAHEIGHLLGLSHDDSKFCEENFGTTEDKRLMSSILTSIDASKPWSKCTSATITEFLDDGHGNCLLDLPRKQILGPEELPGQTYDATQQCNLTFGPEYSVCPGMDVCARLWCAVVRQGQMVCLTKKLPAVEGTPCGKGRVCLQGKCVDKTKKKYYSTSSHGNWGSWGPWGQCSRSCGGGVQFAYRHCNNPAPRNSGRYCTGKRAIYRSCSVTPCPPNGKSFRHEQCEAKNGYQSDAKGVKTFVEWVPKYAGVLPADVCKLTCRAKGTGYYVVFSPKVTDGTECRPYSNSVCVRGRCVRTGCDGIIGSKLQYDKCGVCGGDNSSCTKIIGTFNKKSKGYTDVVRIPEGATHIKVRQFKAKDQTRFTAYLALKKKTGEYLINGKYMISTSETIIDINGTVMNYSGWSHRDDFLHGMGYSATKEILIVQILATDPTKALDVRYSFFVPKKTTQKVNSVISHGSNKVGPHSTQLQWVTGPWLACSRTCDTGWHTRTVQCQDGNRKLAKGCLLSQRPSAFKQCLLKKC
Description: as §1

[3] = tested on: bovine ADAMTS5; assay: SPR-based off-rate analysis, bovine ADAMTS5; settings: Experiment 3
Description: as §1

SPR based off-rate, kd, Human ADAMTS-5 ([1]; Experiment 1): 3.3e-05 s⁻¹
SPR based off-rate, kd, Human ADAMTS-5 ([1]; Experiment 2): 6.5e-05 s⁻¹
SPR based off-rate, kd, Human ADAMTS-5 ([1]; Experiment 3): 9.7e-05 s⁻¹
SPR based off-rate, kd, Mouse ADAMTS-5 [2]: 0.00029 s⁻¹
SPR based off-rate, kd, Bovine ADAMTS-5 [3]: 4.3e-05 s⁻¹
B1: ISVD 02F03: immunoglobulin single variable domain which specifically binds ADAMTS5 (protein)
VHH: EVQLVESGGGVVQPGGSLRLSCAASGRTVSSYAMGWFRQAPGKEREFVAGISRSAERTYYVDSLKGRFTISRDNSKNTVYLQMNSLRPEDTALYYCAADLDPNRIFSREEYAYWGQGTLVTVSS
modifications: Description of Artificial Sequence: Synthetic anti-ADAMTS5 immunoglobulin single variable domain (ISVD)
